For one experiment, the target named is T1, 小鼠Sema7A蛋白 (mouse, UniProt Q9QUR8 45-646).
T1 construct: Endogenous protein of mouse lung tissue, denatured on a western blot; also called Semaphorin7A
T1 sequence (looked up): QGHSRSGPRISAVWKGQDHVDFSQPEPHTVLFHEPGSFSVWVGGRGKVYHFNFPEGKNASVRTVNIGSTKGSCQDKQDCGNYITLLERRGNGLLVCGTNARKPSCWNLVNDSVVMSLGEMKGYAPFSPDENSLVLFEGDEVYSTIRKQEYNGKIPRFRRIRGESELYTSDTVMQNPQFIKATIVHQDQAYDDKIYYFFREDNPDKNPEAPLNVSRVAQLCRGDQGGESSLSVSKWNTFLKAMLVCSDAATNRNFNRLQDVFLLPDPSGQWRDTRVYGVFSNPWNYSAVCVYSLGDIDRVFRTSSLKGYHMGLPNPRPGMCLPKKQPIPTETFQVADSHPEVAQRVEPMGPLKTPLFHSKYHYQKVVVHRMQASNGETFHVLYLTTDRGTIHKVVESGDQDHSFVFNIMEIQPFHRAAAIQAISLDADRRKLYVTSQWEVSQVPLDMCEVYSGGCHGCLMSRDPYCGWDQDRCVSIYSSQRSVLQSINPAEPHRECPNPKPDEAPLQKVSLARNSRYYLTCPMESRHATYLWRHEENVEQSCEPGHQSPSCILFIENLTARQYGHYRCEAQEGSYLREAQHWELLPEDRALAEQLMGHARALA
As to the kind of experiment: western blot of mouse lung tissue. (A western blot detects proteins with antibodies after separation by electrophoresis.)

Another experiment has as its target T2, Sema7A_truncated抗原蛋白 (mouse, UniProt Q9QUR8 59-219).
T2 construct: Truncated part of mouse Sema7A chosen for antigenicity, expressed in E. coli from pET28a; also called Sema7A-His; not shown: His tag from pET28a (Sema7A-His)
T2 sequence: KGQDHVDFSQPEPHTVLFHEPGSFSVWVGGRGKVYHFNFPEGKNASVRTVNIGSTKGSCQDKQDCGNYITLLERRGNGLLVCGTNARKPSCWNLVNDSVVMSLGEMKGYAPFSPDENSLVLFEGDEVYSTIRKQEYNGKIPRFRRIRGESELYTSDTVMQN
As to the kind of experiment: ELISA, 1 ug antigen coated, antibody dilution series. In general terms: An ELISA detects its analyte on a solid surface through an enzyme-linked reagent.

B1: Semaphorin7A单克隆抗体2567-1 (antibody, V domains shown)
VH: QVQLQQSGAELVKPGASVKLSCKASGYTFTSYYMYWVKQRPGQGLEWIGEINPSNGDTNFNEKFKSKATLTVDKSSSTAYMQLSSLTSEDSAVYYCTTPARATFAYWGQGTLVTVSA
VL: DVVMTQTPLSLPVSLGDQASISCRSSQSLVHSNGNTYLHWYLQKPGQSPKLLIYKVSNRFSGVPDRFSGSGSGTDFTLKISRVEAEDLGVYFCSQSTHVPYTFGGGTKLEIK
notes: also called Sema7A抗体2567-1
In the case of B1, the binding result with 小鼠Sema7A蛋白 and with Sema7A_truncated抗原蛋白 was “binds” in each case.

For the origin of these results see CN110156890A (UNIV SUZHOU, dated 2019).
